From publication PMC8752512 (Journal of molecular biology, 2021)

Molecular target: Fgr SH3 domain (human, UniProt P09769 77-138, uniformly 15N-labelled)
Experiment: NMR titration

Binder: PPTPNPPRPP [arrestin-3 aSwI peptide (PPTPNPPRPP)]
- Kd: 347 µM
